Patent US20260001928A1 (CORTERIA PHARMACEUTICALS, priority 2022, published 2026)
*1 amine or outer side, *2 acyl side, *3 side chain or, on linkers, in order; H or OH if unused. Where no end group is shown, it is not given here. Side-chain parts run from the residue outwards. [ ]: non-standard residue; d: D form. The star is where a group is joined. C16 diacid = O=C(O)CCCCCCCCCCCCCCC(=O)*; γGlu = O=C(O)[C@H](CCC(=O)[*:2])N[*:1]; NMeV = CN[C@H](C(=O)O)C(C)C; Decanoyl = CCCCCCCCCC(=O)*; Api = NC1(C(=O)O)CCNCC1; Aib = CC(C)(N)C(=O)O

T1: CRF1R receptor (UniProt P34998 24-415, limits assumed)
T1 sequence (looked up): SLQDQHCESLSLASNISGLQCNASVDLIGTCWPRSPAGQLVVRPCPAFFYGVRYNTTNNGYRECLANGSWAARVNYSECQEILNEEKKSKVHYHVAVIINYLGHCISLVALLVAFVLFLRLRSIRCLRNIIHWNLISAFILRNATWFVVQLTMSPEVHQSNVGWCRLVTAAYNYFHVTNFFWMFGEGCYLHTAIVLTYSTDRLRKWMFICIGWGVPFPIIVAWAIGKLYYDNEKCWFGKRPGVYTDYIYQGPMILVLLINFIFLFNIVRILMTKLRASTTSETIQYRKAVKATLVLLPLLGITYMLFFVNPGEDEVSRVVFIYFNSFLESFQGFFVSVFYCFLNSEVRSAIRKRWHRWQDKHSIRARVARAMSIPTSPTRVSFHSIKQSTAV


Key:
[1] = molecular target: human corticotropin-releasing factor 2a (CRF2a receptor) (human), Q13324; test: cell-based or functional assay
CRF1R receptor = molecular target: T1, CRF1R receptor; test: cell-based or functional assay

Chain of human corticotropin-releasing factor 2a (CRF2a receptor) (human), Q13324 (Q13324 20-411): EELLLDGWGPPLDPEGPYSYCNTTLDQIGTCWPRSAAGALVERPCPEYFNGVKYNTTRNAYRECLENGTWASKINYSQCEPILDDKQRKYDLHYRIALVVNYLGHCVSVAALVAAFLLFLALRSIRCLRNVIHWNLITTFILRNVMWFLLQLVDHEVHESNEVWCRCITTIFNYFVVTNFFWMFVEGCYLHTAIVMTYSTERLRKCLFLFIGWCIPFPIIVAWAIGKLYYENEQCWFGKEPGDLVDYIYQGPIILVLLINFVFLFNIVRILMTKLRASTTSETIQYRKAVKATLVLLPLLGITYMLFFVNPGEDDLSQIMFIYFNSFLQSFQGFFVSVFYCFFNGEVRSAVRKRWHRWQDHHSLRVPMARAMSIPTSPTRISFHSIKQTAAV

| Binder | EC50 [nM] (cAMP) [1] | Emax (% I) (CRF1R receptor) [%] | EC50 (CRF1R receptor) [nM] |
| --- | --- | --- | --- |
| Ac-IVLSLD[dV]PIKLK([γGlu-C16 diacid])KILLEQEKQK[Aib]QREQAETN[Aib]QILAQV-NH2 [SEQ ID NO 162] | 0.49 | 0 |  |
| [NMeV]LSLD[dV]PIKLK([γGlu-C16 diacid])KILLEQEKQKKQREQAETN[Aib]QILAQV-NH2 (N-terminus assumed; SMILES CC[C@H](C)[C@H](NC(=O)[C@H](CCC(N)=O)NC(=O)C(C)(C)NC(=O)[C@H](CC(N)=O)NC(=O)[C@@H](NC(=O)[C@H](CCC(=O)O)NC(=O)[C@H](C)NC(=O)[C@H](CCC(N)=O)NC(=O)[C@H](CCC(=O)O)NC(=O)[C@H](CCCNC(=N)N)NC(=O)[C@H](CCC(N)=O)NC(=O)[C@H](CCCCN)NC(=O)[C@H](CCCCN)NC(=O)[C@H](CCC(N)=O)NC(=O)[C@H](CCCCN)NC(=O)[C@H](CCC(=O)O)NC(=O)[C@H](CCC(N)=O)NC(=O)[C@H](CCC(=O)O)NC(=O)[C@H](CC(C)C)NC(=O)[C@H](CC(C)C)NC(=O)[C@@H](NC(=O)[C@H](CCCCN)NC(=O)[C@H](CCCCNC(=O)CC[C@H](NC(=O)CCCCCCCCCCCCCCC(=O)O)C(=O)O)NC(=O)[C@H](CC(C)C)NC(=O)[C@H](CCCCN)NC(=O)[C@@H](NC(=O)[C@@H]1CCCN1C(=O)[C@H](NC(=O)[C@H](CC(=O)O)NC(=O)[C@H](CC(C)C)NC(=O)[C@H](CO)NC(=O)[C@H](CC(C)C)NC(=O)[C@@H](NC)C(C)C)C(C)C)[C@@H](C)CC)[C@@H](C)CC)[C@@H](C)O)C(=O)N[C@@H](CC(C)C)C(=O)N[C@@H](C)C(=O)N[C@@H](CCC(N)=O)C(=O)N[C@H](C(N)=O)C(C)C) [SEQ ID NO 159] | 2.97 | 4 |  |

Next, values leading:

| EC50 [nM] (cAMP) [1] | Emax (% I) (CRF1R receptor) [%] | EC50 (CRF1R receptor) [nM] | Binder |
| --- | --- | --- | --- |
| 2.08 | 2 |  | [NMeV]LSLD[dV]PIKLK([γGlu-C16 diacid])KILLEQEKQKKQREQAETN[Api]QILAQV-NH2 (N-terminus assumed; SMILES CC[C@H](C)[C@H](NC(=O)[C@H](CCC(N)=O)NC(=O)C1(NC(=O)[C@H](CC(N)=O)NC(=O)[C@@H](NC(=O)[C@H](CCC(=O)O)NC(=O)[C@H](C)NC(=O)[C@H](CCC(N)=O)NC(=O)[C@H](CCC(=O)O)NC(=O)[C@H](CCCNC(=N)N)NC(=O)[C@H](CCC(N)=O)NC(=O)[C@H](CCCCN)NC(=O)[C@H](CCCCN)NC(=O)[C@H](CCC(N)=O)NC(=O)[C@H](CCCCN)NC(=O)[C@H](CCC(=O)O)NC(=O)[C@H](CCC(N)=O)NC(=O)[C@H](CCC(=O)O)NC(=O)[C@H](CC(C)C)NC(=O)[C@H](CC(C)C)NC(=O)[C@@H](NC(=O)[C@H](CCCCN)NC(=O)[C@H](CCCCNC(=O)CC[C@H](NC(=O)CCCCCCCCCCCCCCC(=O)O)C(=O)O)NC(=O)[C@H](CC(C)C)NC(=O)[C@H](CCCCN)NC(=O)[C@@H](NC(=O)[C@@H]2CCCN2C(=O)[C@H](NC(=O)[C@H](CC(=O)O)NC(=O)[C@H](CC(C)C)NC(=O)[C@H](CO)NC(=O)[C@H](CC(C)C)NC(=O)[C@@H](NC)C(C)C)C(C)C)[C@@H](C)CC)[C@@H](C)CC)[C@@H](C)O)CCNCC1)C(=O)N[C@@H](CC(C)C)C(=O)N[C@@H](C)C(=O)N[C@@H](CCC(N)=O)C(=O)N[C@H](C(N)=O)C(C)C) [SEQ ID NO 160] |
| 0.32 | 3 |  | Ac-IVLSLD[dV]PIKLK([γGlu-C16 diacid])KILLEQEKQKAQREQAETN[Aib]QILAQV-NH2 (SMILES CC[C@H](C)[C@H](NC(C)=O)C(=O)N[C@H](C(=O)N[C@@H](CC(C)C)C(=O)N[C@@H](CO)C(=O)N[C@@H](CC(C)C)C(=O)N[C@@H](CC(=O)O)C(=O)N[C@@H](C(=O)N1CCC[C@H]1C(=O)N[C@H](C(=O)N[C@@H](CCCCN)C(=O)N[C@@H](CC(C)C)C(=O)N[C@@H](CCCCNC(=O)CC[C@H](NC(=O)CCCCCCCCCCCCCCC(=O)O)C(=O)O)C(=O)N[C@@H](CCCCN)C(=O)N[C@H](C(=O)N[C@@H](CC(C)C)C(=O)N[C@@H](CC(C)C)C(=O)N[C@@H](CCC(=O)O)C(=O)N[C@@H](CCC(N)=O)C(=O)N[C@@H](CCC(=O)O)C(=O)N[C@@H](CCCCN)C(=O)N[C@@H](CCC(N)=O)C(=O)N[C@@H](CCCCN)C(=O)N[C@@H](C)C(=O)N[C@@H](CCC(N)=O)C(=O)N[C@@H](CCCNC(=N)N)C(=O)N[C@@H](CCC(=O)O)C(=O)N[C@@H](CCC(N)=O)C(=O)N[C@@H](C)C(=O)N[C@@H](CCC(=O)O)C(=O)N[C@H](C(=O)N[C@@H](CC(N)=O)C(=O)NC(C)(C)C(=O)N[C@@H](CCC(N)=O)C(=O)N[C@H](C(=O)N[C@@H](CC(C)C)C(=O)N[C@@H](C)C(=O)N[C@@H](CCC(N)=O)C(=O)N[C@H](C(N)=O)C(C)C)[C@@H](C)CC)[C@@H](C)O)[C@@H](C)CC)[C@@H](C)CC)C(C)C)C(C)C) [SEQ ID NO 161] |
| 0.04 | 54 | 98.7 | Decanoyl-VLSLD[dV]PIKLK([γGlu-C16 diacid])KILLEQEKQKKQREQAETN[Aib]QILAQV-NH2 (SMILES CCCCCCCCCC(=O)N[C@H](C(=O)N[C@@H](CC(C)C)C(=O)N[C@@H](CO)C(=O)N[C@@H](CC(C)C)C(=O)N[C@@H](CC(=O)O)C(=O)N[C@@H](C(=O)N1CCC[C@H]1C(=O)N[C@H](C(=O)N[C@@H](CCCCN)C(=O)N[C@@H](CC(C)C)C(=O)N[C@@H](CCCCNC(=O)CC[C@H](NC(=O)CCCCCCCCCCCCCCC(=O)O)C(=O)O)C(=O)N[C@@H](CCCCN)C(=O)N[C@H](C(=O)N[C@@H](CC(C)C)C(=O)N[C@@H](CC(C)C)C(=O)N[C@@H](CCC(=O)O)C(=O)N[C@@H](CCC(N)=O)C(=O)N[C@@H](CCC(=O)O)C(=O)N[C@@H](CCCCN)C(=O)N[C@@H](CCC(N)=O)C(=O)N[C@@H](CCCCN)C(=O)N[C@@H](CCCCN)C(=O)N[C@@H](CCC(N)=O)C(=O)N[C@@H](CCCNC(=N)N)C(=O)N[C@@H](CCC(=O)O)C(=O)N[C@@H](CCC(N)=O)C(=O)N[C@@H](C)C(=O)N[C@@H](CCC(=O)O)C(=O)N[C@H](C(=O)N[C@@H](CC(N)=O)C(=O)NC(C)(C)C(=O)N[C@@H](CCC(N)=O)C(=O)N[C@H](C(=O)N[C@@H](CC(C)C)C(=O)N[C@@H](C)C(=O)N[C@@H](CCC(N)=O)C(=O)N[C@H](C(N)=O)C(C)C)[C@@H](C)CC)[C@@H](C)O)[C@@H](C)CC)[C@@H](C)CC)C(C)C)C(C)C) [SEQ ID NO 158] |
